In US10456465B2, “Compositions, kits, and methods for the diagnosis prognosis, monitoring, treatment and modulation of post-transplant lymphoproliferative disorders and hypoxia associated angiogenesis disorders using galectin-1” (Dana-Farber Cancer Institute, Inc., priority 2009, dated 2019):

T1: Gal8 (Homo sapiens, UniProt O00214)
T1 construct: made in house
T1 sequence (O00214 1-317): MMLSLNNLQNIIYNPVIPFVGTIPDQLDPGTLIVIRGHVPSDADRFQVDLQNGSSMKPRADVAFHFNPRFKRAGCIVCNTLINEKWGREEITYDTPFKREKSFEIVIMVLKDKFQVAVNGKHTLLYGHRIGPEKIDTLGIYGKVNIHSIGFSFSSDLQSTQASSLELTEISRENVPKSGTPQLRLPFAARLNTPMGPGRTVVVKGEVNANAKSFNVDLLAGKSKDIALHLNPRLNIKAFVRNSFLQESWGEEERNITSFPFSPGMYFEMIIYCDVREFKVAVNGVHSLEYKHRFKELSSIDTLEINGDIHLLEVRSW

B1: anti-Gal1 monoclonal antibody 8F4F8G7 (antibody, V domains shown)
VH: EVQLQQSVAEFVRPGASVRLSCTASGFNIKNTYIHWVRQRPEQGLEWIGKIDPANGNTKYVPEFQGKATMTADTSSNTVYLHLSSLTSEDTAIYYCVDGYYGWYFAVWGTGTTVTVSS
VL: QAVVTQESALTTSPGETVTLTCRSSTGAVTTSNYANWVQEKPDHLFTGLIGATNNRAPGVPARFSGSLIGDKAVLTITGAQTEDEAIYFCALWYRNHFIFGSGTKVTVL
notes: Murine hybridoma mAb (deposit PTA-10535), lambda light chain; also called 14-19 8F4-F8-G7; clone 8F4.8F.67

How the values were obtained:
mice (Matrigel plugs) = experiment: In vivo vascularization of Matrigel sponges; parameters: species or system mouse; settings: Gal1 0.1 or 3 μM; 6 days; hemoglobin content
Experimental: Invasion assays were performed using the BioCoat Angiogenesis system (BD Biosciences) following manufacturer's recommendations. For assessment of in vivo angiogenesis, growth factor-reduced Matrigel (BD Biosciences) was mixed with Gal1 (0.1 or 3 μM) with or without lactose (30 mM). In another set of experiments, serum-free CM from KS cells infected or not with a retroviral vector expressing Gal1 shRNA and cultured under hypoxic or normoxic conditions, were added to unpolymerized Matrigel and injected subcutaneously into the flanks of either wild-type or Lgals1^−/− (B6) mice or nude mice using a cold syringe. Matrigel embedded with buffer alone was used as negative control and a cocktail containing VEGF (50 ng/ml), heparin (50 U/ml) and TNF (2 ng/ml) was used as positive control. After 6 days, Matrigel plugs were collected by surgery, photographed and weighed. Samples were minced and diluted in water to measure hemoglobin content using the Drabkin reagent kit (Sigma). Each sample was normalized to 100 mg of recovered gel and confronted with a standard curve of mouse blood hemoglobin.

endogenous Gal1 = molecular target: T2, endogenous Gal1 (Homo sapiens, UniProt P09382); experiment: Reactivity with endogenous Gal1 from Hodgkin lymphoma cell line (immunoblot); format: binding; settings: Hodgkin lymphoma cell line (L428); immunoblots
T2 construct: endogenous Gal1 from HL cell lines; endogenous in cells; host or cells: Hodgkin lymphoma cell line (L428)
T2 sequence (P09382 whole entry): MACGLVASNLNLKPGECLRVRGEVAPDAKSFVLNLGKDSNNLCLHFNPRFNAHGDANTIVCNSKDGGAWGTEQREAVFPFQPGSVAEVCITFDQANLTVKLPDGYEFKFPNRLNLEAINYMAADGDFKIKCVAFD
Source text: Anti-human Gal1 mAbs were obtained by immunizing B6-Cg-Tg (BCL2)22Wehi-J mice (Jackson Labs, Bar Harbor, Me.) with recombinant human glutathione-s-transferase (GST)-Gal1, generating anti-Gal1 hybridomas with standard methods and purifying the Gal1 monoclonal antibody and class-matched IgG2bλ, control by affinity chromatography. […] A previously described anti-Gal1 polyclonal antibody (Juszczynski et al. (2007) Proc Natl Acad Sci USA 104:13134-9) was used as a positive control in all assays.
Expression of Gal1 protein in HL, LCL and DLBCL cell lines was determined by Western blot (WB) using the αGal1 monoclonal antibody (8F4F8G7) or the previously described polyclonal antiserum (Juszczynski et al. (2007) Proc Natl Acad Sci USA 104:13134-9). Knock-down of LMP2A was confirmed by WB using anαLMP2a antibody (Abcam, Cambridge, Mass.). Activity of the AP-1 components, cJun and JunB, in the HL cell line L428 and the LCLs RIC and NOR were interrogated by WB using αphospho(Ser63)-cJun (Cell Signaling Technology), αcJun (Cell Signaling Technology, Danvers, Mass.), αphospho(Ser259)-JunB (Santa Cruz Biotechnology, Inc. Santa Cruz, Calif.) and αJunB (Cell Signaling Technology). WBs were normalized using αβ-actin antibody (Sigma Aldrich, St. Louis, Mo.) to determine β-actin expression as a loading control.

Gal8 = molecular target: T1, Gal8; experiment: Binding of 488-Gal8 to HUVEC; settings: 488-Gal8 20 μg/ml, mAb 0.5 μM
Experimental: (§1) For glycophenotyping, ECs were incubated with biotinylated L-PHA, LEL, SNA, MAL II, PNA and HPA (all from Vector). Recombinant Gal1 was purified as described in Ilarregui et al. (2009) Nat Immunol 10, 981-991. For binding assays, ECs were incubated for 1 h at 4° C. with dyLight 488-labeled galectins in the absence or presence of lactose, sucrose, anti-Gal1 or isotype control mAb or following transfection with GnT5, GCNT1 or scrambled siRNA. Cells were analyzed on a FACSAria (BD Biosciences). For segregation, ECs were treated with Gal1 for 1 h, fixed and incubated for 1 h with anti-human VEGFR2 antibody (55B11; Cell Signaling) as described in Ilarregui et al. (2009) Nat Immunol 10, 981-991. Cells were analyzed on a Nikon laser confocal microscope (Eclipse E800).
(§2) DyLight 488-conjugated Gal1 (488-Gal1) was obtained using DyLight labeling kit (Thermo Scientific). Inhibitors of Jak2-STAT3 (AG490; 5 μM), Jnk-SAP (SP600125; 20 μM), p38 (SB202190; 10 μM), HIF-1α (3 μM) and O-glycosylation (benzyl-α-Ga1NAc; 2 mM) were from Calbiochem. Inhibitors of Erk1/2 (U0126; 5 μM), PI(3)K-Akt (Ly294002; 2 μM) and NF-κB (BAY 11-7082; 1 μM), ROS (N-acetyl-cysteine; NAC), N-glycosylation (swainsonine; 3 μM), lactose or sucrose (30 mM) were from Sigma. PNGase F (25 U/μg protein) was from New England Biolabs. […]

Gal3 = molecular target: T3, Gal3 (Homo sapiens, UniProt P17931); experiment: Binding of 488-Gal3 to HUVEC; settings: 488-Gal3 20 μg/ml, mAb 0.5 μM
T3 construct: made in house
T3 sequence (P17931 whole entry, species assumed): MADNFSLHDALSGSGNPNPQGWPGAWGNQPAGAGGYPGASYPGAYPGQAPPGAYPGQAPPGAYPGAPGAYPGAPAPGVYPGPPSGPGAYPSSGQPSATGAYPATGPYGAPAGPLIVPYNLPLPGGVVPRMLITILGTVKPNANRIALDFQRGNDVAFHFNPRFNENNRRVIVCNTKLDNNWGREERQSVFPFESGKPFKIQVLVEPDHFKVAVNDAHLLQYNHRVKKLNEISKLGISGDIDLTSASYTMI
Experimental: as §1, §2

| Molecule | vascularization of Matrigel sponges containing recombinant Gal1 (mice (Matrigel plugs)) | reactivity with endogenous Gal1 (endogenous Gal1) | effect on binding of Gal8 to the EC surface (Gal8) | effect on binding of Gal3 to the EC surface (Gal3) |
| --- | --- | --- | --- | --- |
| rGal1: recombinant human galectin-1 | rapidly became vascularized |  |  |  |
| B1 |  | specifically detected | did not interfere | did not interfere |
